Reference: patent US20170022287A1 (Chugai, published 2017)

Columns and labels:
[1] = target: full-length human CD137-Fc fusion protein (human); assay: ELISA, coated CD137-Fc protein 2 µg/mL, antibody 10 or 5 µg/mL; absorbance 620 nm divided by that of the uncoated well
Protocol: (§1) Fragmented human CD137-Fc fusion proteins were diluted to 2 μg/mL in an aqueous sodium carbonate solution adjusted to pH9.6. Fifty μL of a diluted fragmented human CD137-Fc fusion protein was added individually to each well of a Nunc MaxiSorp flat-bottom 96 well plate (Nunc). This was allowed to stand at 4° C. overnight or longer, and then the plate was allowed to stand at room temperature for one hour so that the plate has the same temperature as the room temperature. The solution containing the fragmented human CD137-Fc fusion protein was removed by tilting, and each well was washed three times with 300 μL of Wash buffer (TBS containing 0.1% Tween20, TaKaRa). Next, 150 μL of blocking buffer (TBS containing 2% BSA) was added to each well, and this was allowed to stand for one hour or more. The blocking buffer was removed by tilting, and each well was washed three times with Wash Buffer in a similar manner to an earlier step. Then, 50 μL of an antibody solution prepared in advance by dilution with TBS to 10 μg/mL or 5 μg/mL was added to each well. This was subjected to a speed of 600 rpm or so for one hour at room temperature to bind the antibody to the immobilized antigen. […] 100 μL of a secondary antibody solution produced by 1000-fold dilution with TBS containing 0.1% Tween20 was added to each well. For the secondary antibody, ANTIBODY ALKALINE PHOSPHATASE CONJUGATE HUMAN IMMUNOGLOBULIN ABSORBED Goat Anti-Human Kappa Alkaline Phosphate from BIOSOURCE was used in the case of antibodies carrying a Kappa chain, and Human Lambda Light Chain Antibody; Goat anti-Human Lambda Light Chain Antibody Alkaline Phosphatase Conjugated from BETHYL LABORATORIES INC. was used in the case of antibodies carrying a Lambda chain. […] Color development was performed using the BluePhos Microwell kit from KPL. After the chromogenic reaction was stopped using the AP stop solution from KPL, the absorbance was measured at 620 nm on an absorptiometer.

CRD1 [2] = target: T1, CRD1; assay: as above
T1 construct: also called fragmented human CD137-Fc fusion protein CRD1
Protocol: as §1

CRD1-2 [3] = target: T2, CRD1-2; assay: as above
T2 construct: also called fragmented human CD137-Fc fusion protein CRD1-2
Protocol: as §1

CRD1 [4] = target: T1, CRD1; assay: ELISA, coated CD137-Fc protein 2 µg/mL, antibody 10 or 5 µg/mL, absorbance 620 nm; Non (uncoated well) 0.1705
Protocol: as §1

CRD1-3 [5] = target: T3, CRD1-3; assay: as above
T3 construct: also called fragmented human CD137-Fc fusion protein CRD1-3
Protocol: as §1

CRD1-2 [6] = target: T2, CRD1-2; assay: as above
Protocol: as §1

CRD2-4 [7] = target: T4, CRD2-4; assay: as above
T4 construct: also called fragmented human CD137-Fc fusion protein CRD2-4
Protocol: as §1

CRD2-3 [8] = target: T5, CRD2-3; assay: as above
T5 construct: also called fragmented human CD137-Fc fusion protein CRD2-3
Protocol: as §1

CRD3-4 [9] = target: T6, CRD3-4; assay: as above
T6 construct: also called fragmented human CD137-Fc fusion protein CRD3-4
Protocol: as §1

[10] = target: full-length human CD137-Fc fusion protein (human); assay: as above
Protocol: as §1

CRD1-3 [11] = target: T3, CRD1-3; assay: ELISA, coated CD137-Fc protein 2 µg/mL, antibody 10 or 5 µg/mL; absorbance 620 nm divided by that of the uncoated well
Protocol: as §1

CRD2-4 [12] = target: T4, CRD2-4; assay: as above
Protocol: as §1

CRD2-3 [13] = target: T5, CRD2-3; assay: as above
Protocol: as §1

CRD3-4 [14] = target: T6, CRD3-4; assay: as above
Protocol: as §1

[15] = target: T7, mouse Fcγ receptor III extracellular domain with C-terminal His tag (mouse, UniProt P08508 31-215); assay: SPR (Biacore) kinetics, antibody captured on Protein L, mFcγR as analyte, 1:1 Langmuir model
T7 construct: extracellular domain; also called mFcγRIII; not shown: His tag at the C terminus
T7 sequence (looked up): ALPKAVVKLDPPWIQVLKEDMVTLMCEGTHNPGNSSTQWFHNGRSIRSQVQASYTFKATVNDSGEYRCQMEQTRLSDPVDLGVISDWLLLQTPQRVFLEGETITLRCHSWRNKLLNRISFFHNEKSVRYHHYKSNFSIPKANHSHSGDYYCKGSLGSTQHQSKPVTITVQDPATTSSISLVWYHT

mouse CD137 on T cells = mouse CD137 on T cells (mouse, UniProt P20334 24-256); assay: cell-based or functional assay
Sequence of mouse CD137 on T cells (P20334 24-256): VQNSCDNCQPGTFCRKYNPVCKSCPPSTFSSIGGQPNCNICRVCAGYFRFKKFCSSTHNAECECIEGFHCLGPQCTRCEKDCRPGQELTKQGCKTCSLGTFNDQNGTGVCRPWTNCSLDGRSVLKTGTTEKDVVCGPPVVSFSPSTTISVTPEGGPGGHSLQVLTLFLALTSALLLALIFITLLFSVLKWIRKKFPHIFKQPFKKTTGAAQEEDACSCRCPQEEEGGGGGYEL

T2 sequence (chain, as listed by the source limits assumed): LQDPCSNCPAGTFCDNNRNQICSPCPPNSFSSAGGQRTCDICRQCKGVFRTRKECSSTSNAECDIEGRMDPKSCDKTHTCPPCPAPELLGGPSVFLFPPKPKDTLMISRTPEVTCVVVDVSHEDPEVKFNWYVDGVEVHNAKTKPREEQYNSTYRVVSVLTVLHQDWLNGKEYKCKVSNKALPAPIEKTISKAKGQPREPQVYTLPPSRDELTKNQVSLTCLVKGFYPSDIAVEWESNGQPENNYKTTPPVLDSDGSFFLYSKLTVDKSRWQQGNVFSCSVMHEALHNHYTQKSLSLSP
Sequence of full-length human CD137-Fc fusion protein (human) (chain, as listed by the source limits assumed): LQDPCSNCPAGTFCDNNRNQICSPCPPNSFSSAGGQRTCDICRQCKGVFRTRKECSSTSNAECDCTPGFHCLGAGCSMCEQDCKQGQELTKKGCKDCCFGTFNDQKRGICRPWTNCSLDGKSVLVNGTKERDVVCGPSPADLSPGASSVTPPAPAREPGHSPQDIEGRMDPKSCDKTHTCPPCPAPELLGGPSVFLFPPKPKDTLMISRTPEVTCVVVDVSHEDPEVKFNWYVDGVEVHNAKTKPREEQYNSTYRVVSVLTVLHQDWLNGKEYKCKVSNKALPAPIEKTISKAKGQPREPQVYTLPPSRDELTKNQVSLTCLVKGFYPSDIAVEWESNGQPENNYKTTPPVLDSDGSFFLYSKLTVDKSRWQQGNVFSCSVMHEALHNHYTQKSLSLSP
T1 sequence (chain, as listed by the source limits assumed): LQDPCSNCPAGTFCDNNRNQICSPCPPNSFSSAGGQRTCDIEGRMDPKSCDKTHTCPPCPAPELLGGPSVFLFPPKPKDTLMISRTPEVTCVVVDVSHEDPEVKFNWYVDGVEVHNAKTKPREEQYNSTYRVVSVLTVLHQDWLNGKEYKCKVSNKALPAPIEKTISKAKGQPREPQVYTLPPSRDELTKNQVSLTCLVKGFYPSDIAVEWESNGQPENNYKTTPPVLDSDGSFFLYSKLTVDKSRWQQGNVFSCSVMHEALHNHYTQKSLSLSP
T5 sequence (chain, as listed by the source limits assumed): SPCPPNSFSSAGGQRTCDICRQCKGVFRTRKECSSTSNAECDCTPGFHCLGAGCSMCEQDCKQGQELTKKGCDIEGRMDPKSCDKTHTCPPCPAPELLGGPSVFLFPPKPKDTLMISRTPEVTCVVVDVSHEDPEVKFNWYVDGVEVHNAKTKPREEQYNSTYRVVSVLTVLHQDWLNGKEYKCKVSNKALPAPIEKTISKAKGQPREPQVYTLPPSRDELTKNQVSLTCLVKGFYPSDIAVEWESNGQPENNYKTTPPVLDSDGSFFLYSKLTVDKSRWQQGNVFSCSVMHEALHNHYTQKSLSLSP
T6 sequence (chain, as listed by the source limits assumed): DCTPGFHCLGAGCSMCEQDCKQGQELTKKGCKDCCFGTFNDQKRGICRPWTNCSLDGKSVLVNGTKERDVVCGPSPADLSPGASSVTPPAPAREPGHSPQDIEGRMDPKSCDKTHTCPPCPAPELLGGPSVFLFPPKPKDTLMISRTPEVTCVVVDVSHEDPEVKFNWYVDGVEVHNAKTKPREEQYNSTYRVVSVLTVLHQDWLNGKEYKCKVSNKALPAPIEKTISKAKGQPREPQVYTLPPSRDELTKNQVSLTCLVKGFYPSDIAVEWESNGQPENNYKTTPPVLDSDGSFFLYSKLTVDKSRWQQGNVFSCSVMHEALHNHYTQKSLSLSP
T4 sequence (chain, as listed by the source limits assumed): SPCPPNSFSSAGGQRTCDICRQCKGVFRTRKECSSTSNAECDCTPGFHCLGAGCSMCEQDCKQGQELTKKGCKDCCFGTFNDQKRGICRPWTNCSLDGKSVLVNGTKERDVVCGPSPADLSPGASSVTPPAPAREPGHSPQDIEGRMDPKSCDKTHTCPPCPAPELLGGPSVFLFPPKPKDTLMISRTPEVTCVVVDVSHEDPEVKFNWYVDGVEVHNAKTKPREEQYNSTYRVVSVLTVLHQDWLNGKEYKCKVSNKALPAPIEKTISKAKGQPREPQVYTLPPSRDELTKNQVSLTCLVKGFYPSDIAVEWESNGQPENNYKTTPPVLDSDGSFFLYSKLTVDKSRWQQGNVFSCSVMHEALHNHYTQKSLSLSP
T3 sequence (chain, as listed by the source limits assumed): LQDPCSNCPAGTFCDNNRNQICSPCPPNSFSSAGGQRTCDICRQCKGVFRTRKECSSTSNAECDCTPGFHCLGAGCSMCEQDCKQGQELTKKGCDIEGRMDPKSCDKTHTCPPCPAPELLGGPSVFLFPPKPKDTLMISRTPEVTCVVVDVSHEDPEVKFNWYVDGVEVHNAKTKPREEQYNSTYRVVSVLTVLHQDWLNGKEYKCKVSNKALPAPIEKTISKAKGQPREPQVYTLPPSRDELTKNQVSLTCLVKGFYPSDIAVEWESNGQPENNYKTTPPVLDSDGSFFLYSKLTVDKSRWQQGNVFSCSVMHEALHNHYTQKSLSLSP

B1: R12 (antibody, V domains shown)
VH: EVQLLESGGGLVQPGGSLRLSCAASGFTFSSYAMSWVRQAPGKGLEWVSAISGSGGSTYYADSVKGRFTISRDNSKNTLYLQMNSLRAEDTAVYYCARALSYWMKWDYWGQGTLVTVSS
VL: DIQMTQSPSSLSASVGDRVTITCRASQSISSYLNWYQQKPGKAPKLLIYAASSLQSGVPSRFSGSGSGTDFTLTISSLQPEDFATYYCQQFNGFPLTFGGGTKVEIK
notes: Synthetic library clone; Fab on phage in the phage ELISA
Ratio with respect to Non-Coating [1]: 1.1

B2: R8 (antibody, V domains shown)
VH: QVQLQESGPGLVKPSETLSLTCAVSGYSISSGYYWGWIRQPPGKGLEWIGSIYHSGSTYYNPSLKSRVTISVDTSKNQFSLKLSSVTAADTAVYYCARQHSFTRYYGYYYFDYWGQGTTVTVSS
VL: DIQMTQSPSSLSASVGDRVTITCRASQSISSYLNWYQQKPGKAPKLLIYAASSLQSGVPSRFSGSGSGTDFTLTISSLQPEDFATYYCLQSDSIPLTFGGGTKVEIK
notes: as for B1
Ratio with respect to Non-Coating (CRD1 [2]): 0.7
Ratio with respect to Non-Coating (CRD1-2 [3]): 0.5

B3: R13 (antibody, V domains shown)
VH: QVQLVESGGGLVQPGGSLRLSCAASGFTFSYYDIQWVRQAPGKGLEWVSSISPSGQSTYYRREVKGRFTISRDNSKNTLYLQMNSLRAEDTAVYYCARRTGREYGGGWYFDYWGQGTLVTVSS
VL: DIQMTQSPSSLSASVGDRVTITCRASQSISSYLNWYQQKPGKAPKLLIYAASSLQSGVPSRFSGSGSGTDFTLTISSLQPEDFATYYCQQFSRFPLTFGGGTKVEIK
notes: as for B1
Ratio with respect to Non-Coating [1]: 0.4

B4: R11 (antibody, V domains shown)
VH: QVQLLESGGGLVQPGGSLRLSCAASGFTFSSYAMSWVRQAPGKGLEWVSAISGSGGSTYYADSVKGRFTISRDNSKNTLYLQMNSLRAEDTAVYYCARDKWYYYPALDYWGQGTLVTVSS
VL: DIQMTQSPSSLSASVGDRVTITCRASQSISSYLNWYQQKPGKAPKLLIYAASSLQSGVPSRFSGSGSGTDFTLTISSLQPEDFATYYCQQFSRFPLTFGGGTKVEIK
notes: as for B1
Ratio with respect to Non-Coating [1]: 1

B5: R19 (antibody, V domains shown)
VH: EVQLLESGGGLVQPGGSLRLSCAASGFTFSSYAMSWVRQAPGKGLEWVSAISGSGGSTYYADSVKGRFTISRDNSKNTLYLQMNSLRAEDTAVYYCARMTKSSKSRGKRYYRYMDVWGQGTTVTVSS
VL: DIQMTQSPSSLSASVGDRVTITCRASQSISSYLNWYQQKPGKAPKLLIYAASSLQSGVPSRFSGSGSGTDFTLTISSLQPEDFATYYCLQVYSSPLTFGGGTKVEIK
notes: as for B1
Ratio with respect to Non-Coating [1]: 0.9

B6: R14 (antibody, V domains shown)
VH: QVQLLESGGGLVQPGGSLRLSCAASGFTFSSYAMSWVRQAPGKGLEWVSAISGSGGSTYYADSVKGRFTISRDNSKNTLYLQMNSLRAEDTAVYYCARDKWYYYPALDYWGQGTLVTVSS
VL: DIQMTQSPSSLSASVGDRVTITCRASQSISSYLNWYQQKPGKAPKLLIYAASSLQSGVPSRFSGSGSGTDFTLTISSLQPEDFATYYCLQVYRSPLTFGGGTKVEIK
notes: as for B1
Ratio with respect to Non-Coating [1]: 0.9

B7: R15 (antibody, V domains shown)
VH: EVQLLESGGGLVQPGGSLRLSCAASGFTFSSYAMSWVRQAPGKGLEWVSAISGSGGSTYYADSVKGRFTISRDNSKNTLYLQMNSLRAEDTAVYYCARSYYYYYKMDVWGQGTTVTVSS
VL: DIQMTQSPSSLSASVGDRVTITCRASQSISSYLNWYQQKPGKAPKLLIYAASSLQSGVPSRFSGSGSGTDFTLTISSLQPEDFATYYCQQFVRHPPTFGGGTKVEIK
notes: as for B1
Ratio with respect to Non-Coating [1]: 0.6

B8: R16 (antibody, V domains shown)
VH: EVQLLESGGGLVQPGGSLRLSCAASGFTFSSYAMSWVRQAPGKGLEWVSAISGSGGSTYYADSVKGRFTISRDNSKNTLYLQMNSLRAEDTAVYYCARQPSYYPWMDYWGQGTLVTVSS
VL: DIQMTQSPSSLSASVGDRVTITCRASQSISSYLNWYQQKPGKAPKLLIYAASSLQSGVPSRFSGSGSGTDFTLTISSLQPEDFATYYCQQFNNYPLTFGGGTKVEIK
notes: as for B1
ELISA color development level (CRD1 [4]): 0.286
ELISA color development level (CRD1-3 [5]): 2.24
ELISA color development level (CRD1-2 [6]): 0.269
ELISA color development level (CRD2-4 [7]): 2.17
ELISA color development level (CRD2-3 [8]): 2.54
ELISA color development level (CRD3-4 [9]): 2.63
ELISA color development level [10]: 1.93
Ratio with respect to Non-Coating (CRD1 [2]): 1.7
Ratio with respect to Non-Coating (CRD1-3 [11]): 13.1
Ratio with respect to Non-Coating (CRD1-2 [3]): 1.6
Ratio with respect to Non-Coating (CRD2-4 [12]): 12.7
Ratio with respect to Non-Coating (CRD2-3 [13]): 14.9
Ratio with respect to Non-Coating (CRD3-4 [14]): 15.4
Ratio with respect to Non-Coating [1]: 11.3

B9: H237-mIgG1/MRAL-k0 (antibody)
heavy: QVQLQESGPGLVKPSETLSLTCAVSGHSISHDHAWSWVRQPPGEGLEWIGFISYSGITNYNPSLQGRVTISRDNSKNTLYLQMNSLRAEDTAVYYCARSLARTTAMDYWGEGTLVTVSSAKTTPPSVYPLAPGSAAQTNSMVTLGCLVKGYFPEPVTVTWNSGSLSSGVHTFPAVLQSDLYTLSSSVTVPSSTWPSETVTCNVAHPASSTKVDKKIVPRDCGCKPCICTVPEVSSVFIFPPKPKDVLTITLTPKVTCVVVDISKDDPEVQFSWFVDDVEVHTAQTQPREEQFNSTFRSVSELPIMHQDWLNGKEFKCRVNSAAFPAPIEKTISKTKGRPKAPQVYTIPPPKEQMAKDKVSLTCMITDFFPEDITVEWQWNGQPAENYKNTQPIMDTDGSYFVYSKLNVQKSNWEAGNTFTCSVLHEGLHNHHTEKSLSHSPGK
light: not shown
notes: Anti-human IL-6 receptor variable region H237 with mouse IgG1 constant region; copies: 2 + 2
Kd [15]: 282 nM

B10: 1D8VH-MB492/1D8VL-mk0 (antibody, mouse IgG1, kappa, V domains shown)
VH: QVQLKEAGPGLVQPTQTLSLTCTVSGFSLTSDGVHWIRQPPGKGLEWMGIIYYDGGTDYNSAIKSRLSISRDTSKSQVFLKINSLQTDDTAMYYCARIHFDYWGQGVMVTVSS
VL: DIVLTQSPTTIAASPGEKVTITCRASSSVSYMYWYQQKSGASPKLWIYDTSKLASGVPNRFSGSGSGTSYSLAINTMETEDAATYYCQQWSSTPLTFGSGTKLEIKR
specific activity, mouse IFN-γ in the supernatant of spleen cells (ELISA) (mouse CD137 on T cells): ~8 fold
